A value given as a limit tells only on which side of the number the result lay.

A short description of this data set: folding stability dG unfold (combined trypsin and chymotrypsin); higher = more stable. Here is the method:
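Folding stability of de novo designed mini-proteins (<80 aa, no Cys; designed by TrROS, TrMRF, ProteinMPNN and the joint model) was measured by cDNA display proteolysis with trypsin and chymotrypsin. Each protease was used at 11 concentrations in a threefold dilution series plus a no-protease condition. K50 was inferred by Bayesian fitting of sequencing counts, and dG unfold was derived against a sequence-predicted unfolded-state K50 (Tsuboyama et al. method). Sequences shown include variable-length N-terminal GS-type padding (SAGGSAGG...) inside a display construct carrying a PA tag. Rows were kept only if the AF2 dimer inter-PAE was >15, to exclude likely homo-oligomers.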
For “SAGGSALKPGQPVMIHVRLKIERPDPDGDEKKIPEIHIPVPVEEAKDIAEALPPNYKVKIDDISIMSAGGSA [r15_833_TrROS]”, the “folding stability dG unfold” value was less than -1 kcal/mol. In the case of “SAGGSAMKFYIKYDPKKEKTILILPENNPDLEGNDGSKVIKVENEEELIKLIEEAKKKGIKKIEIKSAGGSA [r15_1004_TrMRF]” it was less than -1 kcal/mol; in that of “SAGGSAMKYTLKDKDGKTITIEVEEHENPDGEPWYEVDIEHPNDGKEKKVYMPPNNPEEFAKKFLKSAGGSA [r15_92_TrROS]”, less than -1 kcal/mol. As to “SAGGSAPIKITIHWDPENGMYRIKGKTPDGPVEYPFPRDELRNMPIENFADELNYEIKDVEIEPYPSAGGSA [r15_801_TrROS]”, the “folding stability dG unfold” value was less than -1 kcal/mol. In the case of “SAGGSAPKRRIEIYPNPNGMYRIKVSNPDGKKREHTIDGPGMPLEQLANKLNIPPGFKIDEIEPYPSAGGSA [r15_167_TrROS]” it was less than -1 kcal/mol; in that of “SAGGSAPPLTEVTLTEVSTDPETGTTTLTLEASGPVESVPLEFPDGRSVKAERLPDGTLVVTNPGASAGGSA [r15_736_JUSTAS]”, less than -1 kcal/mol; in that of “SAGGSASPDTRLVRIELKSNVPGTGIEVTETVPLVELEPDEPAEAVAEEVRAAHPVDEVTVTVDPASAGGSA [r15_540_JUSTAS]”, less than -1 kcal/mol. To “SAGGSASSMVSSLPLKVDPKEKARAEAEKLAEEKLEEEPDLEGTVEVELEMETPDKKIKVRLEIKKSAGGSA [r15_729_JUSTAS]” belongs less than -1 kcal/mol; to “SAGGSATIEEILKEIAEPHGAEPEVDPNSGVIEVDFPNGQEHTINVDDGKPIKIKYNPPGRMYIEISAGGSA [r15_256_TrROS]”, less than -1 kcal/mol; to “SAGGSAYITIDDIKKLGPNMPIMVEPPKGRLMIFSPNQMVKITIDPDDDTIKVKEVFDSPEAMEKLSAGGSA [r15_6_TrROS]”, less than -1 kcal/mol.

Turning to “SAGGSEPFTPEDLIRKALPVKPKAVVIPGPVSEEEIKALLDAGIPVVIIGKDGSRAVAVGDEVKPLSAGGSA [r2_33_TrMRF]”, the “folding stability dG unfold” value was less than -1 kcal/mol. In the case of “SAGGSEVFVLPNGAVAVVEPDPDGVRVARVPGLPGVAVRYPPATRRWVLVTVDPRKGGPRTFTLTGSAGGSA [r2_477_TrMRF]” it was less than -1 kcal/mol; in that of “SAGGSGGSTTPTFEEHVITGPLPVEIKVKKTTLNVTGSSAPSTTTTTTFYDPSGKKLSTKTTTTSSSAGGSA [r2_215_JUSTAS]”, less than -1 kcal/mol. In the case of “SAGGSITISMPWNDPEKAAKALEEAFGVDVPPKVERDPGNGWYTITLPNLGRKIQIDGNKVKIEPPSAGGSA [r2_205_TrROS]”, the “folding stability dG unfold” value is less than -1 kcal/mol. On to “SAGGSKVPLDDFDKVTIGVDPKTGKTTASIYYPSDGSTVTFPGKEIPEVLASNPNIKTVETEPLPGSAGGSA [r2_159_JUSTAS]”, for which the “folding stability dG unfold” value is less than -1 kcal/mol. In the case of “SAGGSMKSEKVFTDPGPFDGASVTVTATEDGTITITVVDPDGVPKTFTKKVEKGNPEEVVKEAIKESAGGSA [r2_298_TrMRF]” it was less than -1 kcal/mol; in that of “SAGGSMPIDDIKEINIQYNPNTGTVMVPFRLPNGHEIMAEQKYDPEAGWPVIPIRVNDGKPIEIPISAGGSA [r2_490_TrROS]”, less than -1 kcal/mol. With “SAGGSPITPEIAQELAEEFPNWDIHVEPRKPGEEIRFPNGMRIFDDPNGYRVMVHNPNGKPRQLPVSAGGSA [r2_166_TrROS]”, the “folding stability dG unfold” value is less than -1 kcal/mol. To “SAGGSPPVPDDETVEIEVPDYKITFHPATQEVTVQTNDPAKAKAVIEALPYPIPYKNIKIVPPEKLSAGGSA [r2_418_JUSTAS]” belongs less than -1 kcal/mol. In the case of “SAGGSPVVPLPPDATATLTETVKVPRVLFDEEGNELEKLEVERTVTTTYTRLPGGEVATTTTTTTESAGGSA [r2_154_JUSTAS]”, the “folding stability dG unfold” value is less than -1 kcal/mol.

With “SAGGSTYTVTRTEELPDGTVRAELTVTLDGAPVPATGTTETAPGGRRRVTVTFPSDPSLSLTTPEESAGGSA [r2_376_JUSTAS]”, the “folding stability dG unfold” value is less than -1 kcal/mol. In the case of “SAGGTELAERIRAMGGFEVVEIKEGEGKPKVTVRTPDPALAEELRAFLAADPRVESVELEELSPELKSAGGS [r16_671_JUSTAS]” it was less than -1 kcal/mol. To “SAGIRFRPGARIEWQNPDNGKKVEIRMREIRDRIQEINGNENPEQITAEQIQEWAREHGFRPIKIEPPSAGG [r19_67_TrROS]” belongs less than -1 kcal/mol; to “SAGKIKEIEMDPPHNQMTLELPEKGRKITINPNMGHLDIEPPDGKPREVPVPNPSDMKEAIKKVLKELKSAG [r5_467_TrROS]”, less than -1 kcal/mol; to “SAGKIRIVDSPDQLENAPPGDIVIHHRPSPETGRPRVRLAKYPDGKWEPLARMDSDGKIELPKELKEAISAG [r5_490_TrROS]”, less than -1 kcal/mol. In the case of “SAGKPRPIINIEWQPNPDGQPNLTISVMRRDPKNGDMKPREYTIDPGADPEDLIKKALDEGADYVSIHPSAG [r5_37_TrROS]”, the “folding stability dG unfold” value was less than -1 kcal/mol. To “SAGMKPGEPIMTIKIKVKDPDNGKEVPINIPVRYQYDNGEPKRPISPDDALEEAKDLADRLKKDPNIKISAG [r5_426_TrROS]” belongs less than -1 kcal/mol; to “SAGMMVLVRNKNGETVPLEDMTEEQLKNMDIEEVEILPPPEIKVEEEVKVDENGNLTVKKKIEIKIEFSAGG [r19_232_TrROS_Hall]”, less than -1 kcal/mol. Turning to “SAGMPELVEFPFPIPPEFPDIPPETLAKLIAEELNEEEFSVEVKSYDPEKPIVTLTVTKDGKPVAEFTDSAG [r5_80_TrMRF]”, the “folding stability dG unfold” value is less than -1 kcal/mol. In the case of “SAGMPVTTVTLYTTDPATGTPTATPGPISDVLALLKREGLPVEREEYDPSPQTHTVYSKGPGKDYIVAGSAG [r5_521_JUSTAS]” it was less than -1 kcal/mol; in that of “SAGMTIPVTSPEEARQVAEELAPEVGKEVTIEEAPPSVSTDNLPSNAIVLVNPDSGVRYVATIKEPDHHSAG [r5_173_JUSTAS]”, less than -1 kcal/mol; in that of “SAGPEPIKIKILKMQPNPNGTPMIRVKVVPPDGKPGEIPIPQEMLKEGNLDDMTIDDIAEEFPGLKPVSAGG [r19_74_TrROS]”, less than -1 kcal/mol. Turning to “SAGPFYVRMKIEVPRKTYDPEDGEPKQEKREIDIWFPMKSEEQARDHADKLAEELPPENVKITDIEPFSAGG [r19_209_TrROS]”, the “folding stability dG unfold” value is less than -1 kcal/mol. To “SAGPPNDVKPIEIPFKMENGSNFRAEIWRDPGDGKVFVPIEYPNPWHRKRMQNWARELAEEHGIDRVEPSAG [r5_99_TrROS]” belongs less than -1 kcal/mol; to “SAGQIRIEIEPNPNGKPKIRITMHNPDGPPREREIPIDPGETVSDIADEFFENGMPIRPGSTIEDLIESAGG [r19_263_TrROS]”, less than -1 kcal/mol; to “SAGSATFTRATTPLPEVTLSWEELEELVKDPNIDSISVHSPTADRTLPAPEGKITGPLAPDQTVTLVGSAGG [r19_152_JUSTAS]”, less than -1 kcal/mol. To “SAGSFEYEFENGSSNRVEVDPENKEVKVEYEPKEGKLIAALPEKGVVLVPIKDKKVEEAAKEVIEKLKKSAG [r5_447_TrMRF]” belongs less than -1 kcal/mol; to “SAGSFSVRLTLRAPDGTTETVSGPAAVAAAIAALPADETAESSVPGSSSSSTVTLPAGGTFSLSTLSSSSAG [r5_506_JUSTAS]”, less than -1 kcal/mol; to “SAGSMKLLILATSYPPDGSTTTKPIFGTEEDLKAAVEALPDGEKAATIIEVSEEGLKTIKTETRPPSLGSAG [r5_970_JUSTAS]”, less than -1 kcal/mol. With “SAGSYTVDVSYRVPVRLSPAGAVEVPVEVELKRYLPDGVPLGEEEIEEEEEKLAEEIAKELAEALAPLSAGG [r19_389_JUSTAS]”, the “folding stability dG unfold” value was less than -1 kcal/mol.

Regarding “SAKAKVVEIKEENGKVIIKIEVEDENGNKKTIEIELPKDDIEIVEVDEDKIVIYNKKTGKKITLDLKDLSAG [r14_947_TrROS_Hall]”, the “folding stability dG unfold” value was more than 6 kcal/mol.

These data come from the supplement of paper PMC12764529.
